Results as given in the supplement of paper PMC10567573.

B1: LOXL2 (parent)
chain: RLLRFSSQIHNNGQSDFRPKNGRH
B2: EPB41L3 (parent)
chain: KKFLTLGSKFRYSGRTQAQTRRAS

Variants of: B1
Experiment: protein stability index of a GFP-peptide fusion (GPS, HEK-293T) (PSI 1-6); higher = more stable
Settings: c terminus: a fixed tail appended
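Also: lentivirally expressed fusions sorted by FACS into six bins by GFP to DsRed ratio, PSI derived from sequencing read proportions per bin multiplied by bin number.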

Protein stability index, by site and new letter:
G22: F 2.11; P 2.7; W 2.22; L 2.49; Y 2.71; I 2.19; E 2.4; H 2.4; K 2.62; D 2.94; Q 2.89; M 2.27; R 2.47; S 3.02; C 2.4; V 2.01; N 2.58; T 2.39
H24: V 2.52; L 2.47; C 2.14; D 2.86; M 2.68; E 3.12; P 2.95; R 2.74; Q 3.16; S 3; W 2.83; T 2.76; G 3.2; F 2.38; K 3.5; A 2.88; I 2.54; Y 2.67; N 2.89
R23: Y 2.61; F 1.84; L 2.04; K 2.8; M 1.84; Q 2.4; A 2.36; S 3.14; N 3.03; D 2.99; E 3.2; P 2.46; I 1.82; H 2.36; V 2.41; W 1.91; G 2.71; C 1.97; T 3.29

Variants of: B2
Experiment: as above
Settings: c terminus: a fixed tail appended

Protein stability index: each site, then its substitutions
G7: I 1.35; F 2.4; S 3.04; K 2.37; P 3.18; H 2.51; N 2.88; W 1.52; T 3.58; M 2.09; Q 2.85; V 2.26; Y 3.02; D 3.3; L 2.25; C 2.38; A 2.95
R15: C 2.66; T 3.4; E 2.89; Y 2.16; H 3.12; Q 3.3; G 2.33; W 2.05; I 2.19; F 2.19; A 3.32; D 3.81; V 2.93; K 2.85; M 2.49; P 2.58; N 2.77; L 2.64; S 2.53
S13: Q 3.04; V 2.01; Y 3.1; N 3.95; K 3.96; T 2.74; W 2.91; A 2.63; H 2.68; E 4.01; M 2.87; D 2.85; F 2.67; C 1.41; G 2.88; I 2.34; P 2.55
K9: F 2.13; D 2.01; E 1.34; C 1.66; M 2.27; V 2.23; Y 2.85; H 2.11; Q 1.79; T 2.13; N 1.99; L 2.29; A 1.96; I 2.6
F10: K 4.16; V 2.92; H 4.22; C 3.11; L 4.09; S 4.22; D 3.88; M 3.59; Q 3.88; N 3.59; T 3.54; P 4.07; I 3.63; W 2.77; Y 3.21
L4: P 3.8; C 3.06; I 2.56; K 3.33; M 3.19; R 3.13; A 2.98; H 3.44; F 2.99; N 3.44; E 2.85; Q 2.38; G 3.36; V 3.02; D 3.63; T 3.11; S 2.91
S8: H 3.01; R 3.46; G 2.81; N 2.89; T 2.88; A 3.02; C 2.04; E 3.26; F 2.43; Q 2.78; M 2.74; V 2.81; P 2.16; Y 3.4; K 2.56; I 2.33; L 2.17; D 2.86
G14: S 3.34; I 2.44; Y 3.03; N 3.67; F 2.56; D 2.81; E 3.75; K 3.1; L 4.04; C 2.06; R 3.38; W 4.87; T 3.81; H 3.57; Q 3.56; A 3.42; P 3.46; V 2.96; M 3.71
T16: L 2.52; F 2.94; D 2.87; Y 3.72; I 2.83; Q 2.94; W 1.84; K 3.02; E 3.38; C 2.2; N 3.28; M 2.99; S 3.36; G 2.54; H 2.93; V 2.74; A 2.53; R 3.13
K1: H 2.56; D 2.43; R 3.7; M 4.46; G 3.83; Y 2.23; N 3.5; I 2.42; L 1.91; V 2.25; A 2.2; C 2.56; P 2.18; W 1.91; T 2.38; S 2.76; F 2.45
Q17: L 2.77; V 2.24; K 2.11; G 2.63; N 2.01; T 2.38; C 2.94; D 2.95; A 2.32; S 2.01; F 1.76; H 3.25; R 2.95; E 2.76; I 2.57; M 2.77
F3: T 3.48; Y 3.58; D 3.81; Q 2.95; N 3.59; L 3.22; K 3.65; M 3.56; E 3.11; H 3.82; S 3.78; P 3.6; C 3.76; A 3.62; I 3.32; R 4.15; V 3.07
T5: P 2.67; W 1.56; F 1.84; G 3.25; M 2.74; A 3.78; C 2.21; S 3.05; Q 3.38; K 3.39; D 1.62; R 3.06; E 2.96; Y 1.88; H 2.82; I 2.27; N 3.47
L6: E 4.08; N 3.44; A 4.31; C 3.17; S 2.52; T 3.88; Q 3.97; P 3.57; H 3.38; M 2.64; K 3.64; I 2.75; V 3.61; Y 2.48; D 4.05
Y12: R 4.02; M 3.9; K 3.01; P 3.23; I 3.69; F 2.6; C 2.54; T 3.96; A 4.58; Q 3.82
R11: V 3.17; D 4.24; I 2.89; T 3.6; P 3.08; L 2.43; K 2.92; A 3.11; N 2.63; C 3.96; S 3.4; H 3.7; G 3.57; F 2.48
K2: G 2.59; Y 2.22; C 2.6; I 2.54; Q 2.06; V 2.23; E 2.47; A 2.14; L 1.57; W 2.31; R 4.02; T 2.44; S 2.74; F 4.04; D 2.44; N 2.85; H 2.4; P 2.84
